Measurements taken from paper PMC2138209.

Target: 7S subunit of the lemon shark 19S immunoglobulin (lemon shark, Negaprion brevirostris)
Test: AUC

stoichiometry N: 5
Substance: 7S subunit of the lemon shark 19S immunoglobulin (complex)
